# Target: the molecule itself
# Experiment: cross-linking; HSP90α CTD (2 μM) in Na2HPO4 (25 mM; pH 7.4), incubated 1 h at room temperature with different concentrations of VWK147, then BS3 100 μM for 1 h at room temperature; 12% SDS-PAGE and Western blot with anti-HSP90 (AC88)
protein,measurement,value
"recombinant HSP90α CTD (domain or fragment, C-terminal domain (CTD) of heat shock protein 90 alpha (HSP90α; HSPC1/HSP90AA1); It says human (hHSP90) only of HSP90 in general and in the modelling; also called CTD r-HSP90α; HSP90 CTD; source: recombinant) not shown",stoichiometry N,2
